From US20170010270A1 (Chugai, published 2017)
Values belong to the binder of their own block, whether it stands above or below them.

How the values were obtained:
[1] = target: T1, GPC3 peptide, amino acid position 201-230 (SEQ ID NO: 11) (human); assay: ELISA on immobilised peptide
T1 construct: synthetic 30-residue peptide of GPC3
T1 peptide: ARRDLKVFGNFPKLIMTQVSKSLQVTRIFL
Protocol: (§1) In order to identify more detailed epitopes for the antibodies, the amino acid sequence of GPC3 was divided into peptides of 30 residues containing 10-residue overlaps, and the corresponding peptides were synthesized (SEQ ID NOs: 1 to 29 in Table 2). Each peptide thus synthesized was dissolved at a concentration of 1 mg/mL in dimethyl sulfoxide and then diluted to 1 μg/mL with PBS. The diluted peptide solution was added at 70 μL/well to a 96-well plate and immobilized thereon at room temperature for 1 hour. After removal of unimmobilized peptides, 20% Blocking-one (Nacalai Tesque, Inc.) was added thereto as a blocking buffer solution at 200 μL/well, and the plate was blocked overnight. After removal of the blocking buffer solution, each well was washed with TBS-T three times, and each antibody diluted to 2 μg/mL with a blocking buffer was then added thereto at 70 μL/well. One hour later, the antibody was removed, and each well was washed three times by the addition of TBS-T at 200 μL/well. An HRP-bound anti-mouse antibody was added at 70 μL/well to each well and reacted therewith for 1 hour. After removal of the antibody, each well was washed with 200 μL/well of TBS-T three times, and a chromogenic reagent ABTS Peroxidase Substrate System (1 component, KPL, Kirkegaard & Perry Laboratories, Inc.) was then added thereto at 70 μL/well and reacted at room temperature for […] to develop color. The reaction was terminated by the addition of 1% SDS at 70 μL/well, and the absorbance at 405 nm was measured using a plate reader.

[2] = target: T2, GPC3 peptide, amino acid position 241-270 (SEQ ID NO: 13) (human); assay: ELISA on immobilised peptide
T2 construct: synthetic 30-residue peptide of GPC3
T2 peptide: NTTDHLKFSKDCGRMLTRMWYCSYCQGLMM
Protocol: as §1

[3] = target: T3, GPC3 peptide, amino acid position 501-530 (SEQ ID NO: 26) (human); assay: ELISA on immobilised peptide
T3 construct: synthetic 30-residue peptide of GPC3
T3 peptide: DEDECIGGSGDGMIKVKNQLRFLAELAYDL
Protocol: as §1

[4] = target: T4, GPC3 peptide, amino acid position 141-170 (SEQ ID NO: 8) (human); assay: ELISA on immobilised peptide
T4 construct: synthetic 30-residue peptide of GPC3
T4 peptide: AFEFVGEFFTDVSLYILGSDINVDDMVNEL
Protocol: as §1

[5] = target: T5, GPC3 peptide, amino acid position 301-330 (SEQ ID NO: 16) (human); assay: ELISA on immobilised peptide
T5 construct: synthetic 30-residue peptide of GPC3
T5 peptide: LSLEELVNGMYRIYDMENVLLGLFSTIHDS
Protocol: as §1

[6] = target: T6, GPC3 peptide, amino acid position 461-490 (SEQ ID NO: 24) (human); assay: ELISA on immobilised peptide
T6 construct: synthetic 30-residue peptide of GPC3
T6 peptide: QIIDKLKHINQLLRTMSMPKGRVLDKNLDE
Protocol: as §1

[7] = target: T7, AW3, C-terminally His-tagged recombinant product of positions 1 to 218 of GPC3 (human, UniProt P51654 25-218); assay: Western blot of CHO cell pellets, reducing
T7 construct: Expressed in CHO cells; cell pellets used in reducing Western blot; Construct is stated from position 1; not shown: C-terminal His tag
T7 sequence (P51654 25-218): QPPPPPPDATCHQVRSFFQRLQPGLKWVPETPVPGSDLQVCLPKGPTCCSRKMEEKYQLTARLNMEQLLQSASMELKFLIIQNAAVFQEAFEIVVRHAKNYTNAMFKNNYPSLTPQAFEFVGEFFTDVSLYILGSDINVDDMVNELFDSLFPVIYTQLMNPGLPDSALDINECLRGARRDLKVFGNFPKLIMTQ

[8] = target: T8, AW5, C-terminally His-tagged recombinant product of positions 1 to 357 of GPC3 (human, UniProt P51654 25-357); assay: Western blot of CHO cell pellets, reducing
T8 construct: Expressed in CHO cells; cell pellets used in reducing Western blot; Construct is stated from position 1; also called AW5 (1-357); not shown: C-terminal His tag
T8 sequence (P51654 25-357): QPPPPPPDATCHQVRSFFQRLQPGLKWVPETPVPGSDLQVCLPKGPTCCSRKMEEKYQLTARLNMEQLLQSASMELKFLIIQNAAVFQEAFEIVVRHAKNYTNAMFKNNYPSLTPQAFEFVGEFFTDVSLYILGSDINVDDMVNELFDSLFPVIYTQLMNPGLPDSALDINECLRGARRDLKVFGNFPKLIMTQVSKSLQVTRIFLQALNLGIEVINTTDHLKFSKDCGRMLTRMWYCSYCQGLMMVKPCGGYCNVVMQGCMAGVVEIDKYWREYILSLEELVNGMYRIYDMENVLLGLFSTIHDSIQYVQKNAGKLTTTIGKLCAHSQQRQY

[9] = target: T9, AW2, C-terminally His-tagged recombinant product of positions 1 to 196 of GPC3 (human, UniProt P51654 25-196); assay: Western blot of CHO cell pellets, reducing
T9 construct: Expressed in CHO cells; cell pellets used in reducing Western blot; Construct is stated from position 1; also called AW2 (1-196); not shown: C-terminal His tag
T9 sequence (P51654 25-196): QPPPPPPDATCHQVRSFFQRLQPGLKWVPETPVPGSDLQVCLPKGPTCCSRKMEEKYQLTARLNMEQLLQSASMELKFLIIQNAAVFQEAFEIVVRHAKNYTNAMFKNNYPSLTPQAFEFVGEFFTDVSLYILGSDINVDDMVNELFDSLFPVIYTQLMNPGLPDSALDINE

binding result [1]: no binding (tested: 2 µg/mL)
binding result [2]: no binding (tested: 2 µg/mL)
binding result [3]: no binding (tested: 2 µg/mL)
binding result [4]: no binding (tested: 2 µg/mL)
binding result [5]: no binding (tested: 2 µg/mL)
binding result [6]: no binding (tested: 2 µg/mL)
binding result [7]: no binding
binding result [8]: no binding
binding result [9]: no binding
B1: GT165 antibody (antibody, IgG1, V domains shown)
VH: QVQLQQSGAELVGPGASVKISCKAFGYTFTNHHINWVKQRPGQGLDWIGYINPYNDYTNYNQKFKGKATLTVDKSSSTAYMELSSLTSEDSAVYYCARSDPAWFAYWGQGTLVTVSA
VL: DIQMTQSPSSLSASLGGKVTITCKASQDINKNIAWYQHKPGKGPRLLIWYTYTLQPGIPSRFSGSGSGRDYSFSISNLEPEDIATYYCLQYDNLPFTFGTGTKLEIKR

binding result [1]: no binding (tested: 2 µg/mL)
binding result [2]: no binding (tested: 2 µg/mL)
binding result [3]: no binding (tested: 2 µg/mL)
binding result [4]: no binding (tested: 2 µg/mL)
binding result [5]: no binding (tested: 2 µg/mL)
binding result [6]: no binding (tested: 2 µg/mL)
binding result [7]: no binding
binding result [9]: no binding
B2: GT114 antibody (antibody, IgG1, V domains shown)
VH: DVQLQESGPGLVKPSQSLSLTCTVTGYSITSDSAWNWIRQFPGNKLEWMAYIMYSGITSYNPSLKSRISITRDTAKNQFFLQLNSVTTEDSATYYCSRGYWYFDVWGAGTTVTVSS
VL: QIVLTQSPAIMSASLGEEITLTCSASSSVSYMHWYQQKSGTSPKLLIYSTSILASGVPSRFSGSGSGTFYSLTISSVEAEDAADYYCLQWITYRTFGGGTKLEIKR

binding result [1]: no binding (tested: 2 µg/mL)
binding result [2]: no binding (tested: 2 µg/mL)
binding result [3]: no binding (tested: 2 µg/mL)
binding result [4]: no binding (tested: 2 µg/mL)
binding result [5]: no binding (tested: 2 µg/mL)
binding result [6]: no binding (tested: 2 µg/mL)
binding result [7]: no binding
binding result [9]: no binding
B3: GT607 antibody (antibody, IgG1, V domains shown)
VH: EVQLVESGGDVVRPGGSLKLSCAASGFTFSSYGMSWVRQLPDKRLEWVASVGNGGSYRYYPENLKGRFTISRDNTKNTLYLQISGLKSEDTAIYYCARRGAFPYFDVWGAGTTVTVSS
VL: QIVLTQSPAIMSASPGEKVTLACSASSSVTYMHWYQQKSGTSPKRWIYETSKLASGVPPRFSGSGSGTSYSLTISTMEAEDAATYYCQQWSSNPLTFGAGTKLELKR
